This series addresses T1, MutY adenine DNA glycosylase (UniProt P17802).
T1 sequence: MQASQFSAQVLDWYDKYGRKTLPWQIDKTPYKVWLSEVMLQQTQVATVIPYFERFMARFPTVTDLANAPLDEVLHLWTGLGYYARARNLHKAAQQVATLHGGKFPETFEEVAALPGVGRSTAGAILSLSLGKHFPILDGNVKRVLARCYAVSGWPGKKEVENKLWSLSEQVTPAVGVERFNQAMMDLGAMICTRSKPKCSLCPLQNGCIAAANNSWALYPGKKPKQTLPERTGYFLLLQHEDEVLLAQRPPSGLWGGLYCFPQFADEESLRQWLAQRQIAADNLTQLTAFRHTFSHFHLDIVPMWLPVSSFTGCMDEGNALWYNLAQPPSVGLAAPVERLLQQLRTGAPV
The experiment in a line: EMSA. The settings on record: pyrrolidine residue lacking a base (inhibitor 1); at least 20 times higher than 2a.

In general, Kd refers to the equilibrium constant for the complex coming apart. A high value points to lower affinity.

The substance pyrrolidine (inhibitor 1) abasic duplex registered an equilibrium dissociation constant (Kd) of 0.065 nM. In other words, the picomolar range.
